Data on four molecules can be found in patent US20240391954A1, “MC4R AGONIST PEPTIDES” (The Regents of the University of Michigan, priority 2021, published 2024).

Like-named read-outs stand apart in the source and are kept apart here. Starred links: 1 amine or outer side, 2 acyl side, 3 side chain; linkers in the order of their positions; H or OH if unused. Positions of bridges follow the written chain, without caps; N, C: chain ends. Non-standard residues stand in square brackets, D forms with d. dTyr(O-Me) = O-methyl-D-tyrosine, COc1ccc(C[C@@H](N[*:1])C(=O)[*:2])cc1; dPhe(4-Br) = N[C@H](Cc1ccc(Br)cc1)C(=O)O; dPhe(4-F) = N[C@H](Cc1ccc(F)cc1)C(=O)O

Test [1] deals with T1, human MC4R receptor (human, UniProt P32245 1-332). Description: cell-based or functional assay.
Test [2] concerns the target plasma protein. In words: plasma ultrafiltration (Centrifree), LC-MS/MS; peptide 1.0 uM.
Test [3] has as its target plasma protein. In words: plasma ultrafiltration (Centrifree), LC-MS/MS; peptide 0.1 uM.
In test [4] the target is plasma protein. Description: plasma ultrafiltration (Centrifree), LC-MS/MS; peptide 10.0 uM.
Test [5] deals with human MC3R (human, UniProt P41968 1-323). Description: cell-based or functional assay.
Test [6] has as its target T1, human MC4R receptor. Description: cell-based or functional assay. The source holds these as a separate data set.
Test [7] concerns the target T1, human MC4R receptor. In words: cell-based or functional assay. This is another data set of the same source.

Sequence of human MC3R (P41968 whole entry): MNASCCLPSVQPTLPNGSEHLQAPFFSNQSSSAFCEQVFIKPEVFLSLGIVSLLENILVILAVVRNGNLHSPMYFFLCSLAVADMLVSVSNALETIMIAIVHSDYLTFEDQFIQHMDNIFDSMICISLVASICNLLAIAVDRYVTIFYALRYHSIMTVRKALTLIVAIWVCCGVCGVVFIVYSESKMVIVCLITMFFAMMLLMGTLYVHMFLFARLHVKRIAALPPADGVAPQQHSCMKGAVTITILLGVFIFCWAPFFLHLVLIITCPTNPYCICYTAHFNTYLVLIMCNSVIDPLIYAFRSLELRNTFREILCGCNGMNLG
T1 sequence (P32245 whole entry): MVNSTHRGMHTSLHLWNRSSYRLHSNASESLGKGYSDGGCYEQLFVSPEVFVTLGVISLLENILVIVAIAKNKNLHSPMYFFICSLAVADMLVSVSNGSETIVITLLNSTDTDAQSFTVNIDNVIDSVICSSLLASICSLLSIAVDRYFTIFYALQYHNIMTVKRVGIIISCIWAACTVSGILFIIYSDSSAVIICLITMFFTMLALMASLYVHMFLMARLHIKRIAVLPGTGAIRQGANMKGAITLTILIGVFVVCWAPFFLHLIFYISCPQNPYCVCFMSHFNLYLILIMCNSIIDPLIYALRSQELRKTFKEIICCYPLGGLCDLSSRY

For CTX-1200 (setmelanotide) (peptide), the MC4R selectivity vs MC1R in test [1] is 0.69. The molecule also showed an MC4R selectivity vs MC3R in test [1] of 4.09. The results for the Protein Binding (%) in test [2], in test [3] and in test [4] were 57%, 43% and 61%, respectively.

B1: CTX-1258 (peptide)
peptide: Ac-RC[dA]R[dPhe(4-Br)]RFC-NH2
modifications: disulfide 2-8
SMILES: CC(=O)N[C@@H](CCCNC(=N)N)C(=O)N[C@H]1CSSC[C@@H](C(N)=O)NC(=O)[C@H](Cc2ccccc2)NC(=O)[C@H](CCCNC(=N)N)NC(=O)[C@@H](Cc2ccc(Br)cc2)NC(=O)[C@H](CCCNC(=N)N)NC(=O)[C@@H](C)NC1=O
As for B1, the Protein Binding (%) in test [2] came out at 50%; in test [3], 47%; in test [4] it was 50%. For the same molecule, the figures for the “% max activation” value in test [5] and in test [6] were 36% and 92%, respectively. In addition, the “cAMP EC50” value in test [5] was found to be 7.4 nM; in test [6], 2.4 nM. For the same molecule, the “MC4R selectivity vs MC1R” value in test [7] stood at 0.53. The “MC4R selectivity vs MC3R” value in test [7] is 3.04.

B2: CTX-1238 (peptide)
peptide: Ac-RC[dA]R[dTyr(O-Me)]R[dW]C-NH2
modifications: disulfide 2-8
SMILES: COc1ccc(C[C@H]2NC(=O)[C@H](CCCNC(=N)N)NC(=O)[C@@H](C)NC(=O)[C@@H](NC(=O)[C@H](CCCNC(=N)N)NC(C)=O)CSSC[C@@H](C(N)=O)NC(=O)[C@@H](Cc3c[nH]c4ccccc34)NC(=O)[C@H](CCCNC(=N)N)NC2=O)cc1
As to B2, the Protein Binding (%) is 47% in test [2], 53% in test [3] and 41% in test [4]. The “% max activation” value turned out to be 21% in test [5] and 79% in test [6]. Further, the “cAMP EC50” value was determined as 3 nM in test [5] and 6.2 nM in test [6]. Also, in test [7], the “MC4R selectivity vs MC1R” value was determined as 0.44. Also, the “MC4R selectivity vs MC3R” value in test [7] was determined as 0.49.

With Ac-RC[dA]R[dPhe(4-F)]R[dW]C-NH2 (disulfide 2-8) [CTX-1236], the Protein Binding (%) in test [2] was 49%; in test [3], 45%; in test [4], 51%. In addition, the “% max activation” value was 66% in test [5] and 97% in test [6]. Also, the “cAMP EC50” value in test [5] was determined as 2.6 nM; in test [6], 1.9 nM. Also, the “MC4R selectivity vs MC1R” value in test [7] stood at 2.01. For the same molecule, in test [7], the “MC4R selectivity vs MC3R” value turned out to be 1.36.
